Measured values published in article PMC7509493.

Molecular target: recombinant flounder IL-2 receptor beta, GST-tagged (GST-rfIL-2Rβ) (flounder (Paralichthys olivaceus))

Question: “recombinant flounder IL-2 protein, His-tagged (His-rfIL-2) (ligand)” was tested. Which percentage of CD4-1+ T lymphocytes in cultured flounder PBLs (FCM, 72 h), PHA + rfIL-2 after blocking with anti-rfIL-2Rβ polyclonal antibodies (order of 'respectively' assumed) did it give?
Answer: 12.6%

Question: What about the percentage of CD4-1+ T lymphocytes in cultured flounder PBLs (FCM, 72 h), PHA + rfIL-2 group without blocking antibodies of the same substance?
Answer: 19.2%

Question: And the percentage of CD4-1+ T lymphocytes in cultured flounder PBLs (FCM, 72 h), PHA + rfIL-2 with anti-rfIL-2 polyclonal antibodies (order of 'respectively' assumed)?
Answer: 7.2%

Question: What about the percentage of CD4-2+ T lymphocytes in cultured flounder PBLs (FCM, 72 h), PHA + rfIL-2 after blocking with anti-rfIL-2Rβ polyclonal antibodies (order of 'respectively' assumed) of the same substance?
Answer: 11%

Question: What about the percentage of CD4-2+ T lymphocytes in cultured flounder PBLs (FCM, 72 h), PHA + rfIL-2 group without blocking antibodies of the same substance?
Answer: 14.5%

Question: And the percentage of CD4-2+ T lymphocytes in cultured flounder PBLs (FCM, 72 h), PHA + rfIL-2 with anti-rfIL-2 polyclonal antibodies (order of 'respectively' assumed)?
Answer: 8.8%

Question: What about the percentage of IL-2Rβ+ cells in cultured flounder PBLs (FCM, 72 h), PHA + rfIL-2 after blocking with anti-rfIL-2Rβ polyclonal antibodies of the same substance?
Answer: 17.8%

Question: What about the percentage of IL-2Rβ+ cells in cultured flounder PBLs (FCM, 72 h), PHA + rfIL-2 group without blocking antibodies of the same substance?
Answer: 26.8%

Question: What about the percentage of IL-2Rβ+ cells in cultured flounder PBLs (FCM, 72 h), PHA + rfIL-2 with anti-rfIL-2 polyclonal antibodies of the same substance?
Answer: 13.3%
